In the supplement of paper PMC11246515:
± gives the standard deviation of the averaged measurements.

Test: total protein half-life in vivo (active degradation + dilution); higher = more stable protein
[1] = E. coli NCM3722 delta-clpP delta-lon delta-hslV, growth: N-lim chemostat, doubling time 6 h
[2] = E. coli NCM3722 delta-clpP, growth: N-lim chemostat, doubling time 6 h
[3] = E. coli NCM3722 delta-hslV, growth: N-lim chemostat, doubling time 6 h
[4] = E. coli NCM3722 delta-lon, growth: N-lim chemostat, doubling time 6 h
[5] = E. coli NCM3722 delta-smpB, growth: N-lim chemostat, doubling time 6 h
[6] = wild type E. coli NCM3722, growth: C-lim chemostat, doubling time 3 h
[7] = wild type E. coli NCM3722, growth: C-lim chemostat, doubling time 6 h
[8] = wild type E. coli NCM3722, growth: C-lim chemostat, doubling time 12 h
[9] = wild type E. coli NCM3722, growth: N-lim chemostat, doubling time 12 h
[10] = wild type E. coli NCM3722, growth: P-lim chemostat, doubling time 6 h
[11] = wild type E. coli NCM3722, growth: P-lim chemostat, doubling time 12 h
[12] = wild type E. coli NCM3722, growth: N-lim chemostat, doubling time 6 h

Row | Sequence | total protein half-life in vivo [1] | total protein half-life in vivo [2] | total protein half-life in vivo [3] | total protein half-life in vivo [4] | total protein half-life in vivo [5] | total protein half-life in vivo [6] | total protein half-life in vivo [7] | total protein half-life in vivo [8] | total protein half-life in vivo [9] | total protein half-life in vivo [10] | total protein half-life in vivo [11] | total protein half-life in vivo [12]
1 | MNMLALTIILPLIGFVLLAFSRGRWSENVSAIVGVGSVGLAALVTAFIGVDFFANGEQTYSQPLWTWMSVGDFNIGFNLVLDGLSLTMLSVVTGVGFLIHMYASWYMRGEEGYSRFFAYTNLFIASMVVLVLADNLLLMYLGWEGVGLCSYLLIGFYYTDPKNGAAAMKAFVVTRVGDVFLAFALFILYNELGTLNFREMVELAPAHFADGNNMLMWATLMLLGGAVGKSAQLPLQTWLADAMAGPTPVSALIHAATMVTAGVYLIARTHGLFLMTPEVLHLVGIVGAVTLLLAGFAALVQTDIKRVLAYSTMSQIGYMFLALGVQAWDAAIFHLMTHAFFKALLFLASGSVILACHHEQNIFKMGGLRKSIPLVYLCFLVGGAALSALPLVTAGFFSKDEILAGAMANGHINLMVAGLVGAFMTSLYTFRMIFIVFHGKEQIHAHAVKGVTHSLPLIVLLILSTFVGALIVPPLQGVLPQTTELAHGSMLTLEITSGVVAVVGILLAAWLWLGKRTLVTSIANSAPGRLLGTWWYNAWGFDWLYDKVFVKPFLGIAWLLKRDPLNSMMNIPAVLSRFAGKGLLLSENGYLRWYVASMSIGAVVVLALLMVLR | 7.03 ± 0.33 h | 7.32 ± 0.33 h | 6.62 ± 0.33 h | 5.89 ± 0.59 h | 6.017 ± 0.032 h | 3.23 h | 7.19 ± 1.1 h | 12.1 ± 1.4 h | 15.6 h | 6.74 ± 0.88 h | 11.1 ± 1.1 h | –
2 | MNMLEKIQSQLEHLSKSERKVAEVILASPDNAIHSSIAAMALEANVSEPTVNRFCRSMDTRGFPDFKLHLAQSLANGTPYVNRNVNEDDSVESYTGKIFESAMATLDHVRHSLDKSAINRAVDLLTQAKKIAFFGLGSSAAVAHDAMNKFFRFNVPVVYSDDIVLQRMSCMNCSDGDVVVLISHTGRTKNLVELAQLARENDAMVIALTSAGTPLAREATLAITLDVPEDTDIYMPMVSRLAQLTVIDVLATGFTLRRGAKFRDNLKRVKEALKESRFDKQLLNLSDDR | 6.3 ± 1.1 h | 4.86 ± 0.47 h | 3.12 ± 0.53 h | 3.65 ± 0.91 h | 3.23 ± 0.018 h | 2.26 ± 0.21 h | 4.52 ± 1.7 h | 5.45 ± 0.083 h | 4.38 ± 0.15 h | 2 ± 0.28 h | 4.1 ± 1.5 h | 3.77 ± 0.28 h
3 | MNMTKGALILSLSFLLAACSSIPQNIKGNNQPDIQKSFVAVHNQPGLYVGQQARFGGKVINVINGKTDTLLEISVLPLDSYAKPDIEANYQGRLLARQSGFLDPVNYRNHFVTILGTIQGEQPGFINKVPYNFLEVNMQGIQVWHLREVVNTTYNLWDYGYGAFWPEPGWGAPYYTNAVSQVTPELVK | – | 6.72 ± 0.84 h | 6.43 ± 0.72 h | – | 6.62 ± 0.25 h | – | – | 14.6 h | 12.8 ± 0.086 h | 5.75 ± 0.59 h | 12.6 ± 1 h | –
4 | MNNEPLRPDPDRLLEQTAAPHRGKLKVFFGACAGVGKTWAMLAEAQRLRAQGLDIVVGVVETHGRKDTAAMLEGLAVLPLKRQAYRGRHISEFDLDAALARRPALILMDELAHSNAPGSRHPKRWQDIEELLEAGIDVFTTVNVQHLESLNDVVSGVTGIQVRETVPDPFFDAADDVVLVDLPPDDLRQRLKEGKVYIAGQAERAIEHFFRKGNLIALRELALRRTADRVDEQMRAWRGHPGEEKVWHTRDAILLCIGHNTGSEKLVRAAARLASRLGSVWHAVYVETPALHRLPEKKRRAILSALRLAQELGAETATLSDPAEEKAVVRYAREHNLGKIILGRPASRRWWRRETFADRLARIAPDLDQVLVALDEPPARTINNAPDNRSFKDKWRVQIQGCVVAAALCAVITLIAMQWLMAFDAANLVMLYLLGVVVVALFYGRWPSVVATVINVVSFDLFFIAPRGTLAVSDVQYLLTFAVMLTVGLVIGNLTAGVRYQARVARYREQRTRHLYEMSKALAVGRSPQDIAATSEQFIASTFHARSQVLLPDDNGKLQPLTHPQGMTPWDDAIAQWSFDKGLPAGAGTDTLPGVPYQILPLKSGEKTYGLVVVEPGNLRQLMIPEQQRLLETFTLLVANALERLTLTASEEQARMASEREQIRNALLAALSHDLRTPLTVLFGQAEILTLDLASEGSPHARQASEIRQHVLNTTRLVNNLLDMARIQSGGFNLKKEWLTLEEVVGSALQMLEPGLSSPINLSLPEPLTLIHVDGPLFERVLINLLENAVKYAGAQAEIGIDAHVEGENLQLDVWDNGPGLPPGQEQTIFDKFARGNKESAVPGVGLGLAICRAIVDVHGGTITAFNRPEGGACFRVTLPQQTAPELEEFHEDM | 6.66 ± 0.19 h | 6.31 ± 0.4 h | 6.32 ± 0.48 h | 5.21 ± 0.13 h | 5.88 ± 0.37 h | 3.44 ± 0.035 h | 6 ± 0.74 h | 12.1 ± 1 h | 10.7 ± 0.66 h | 6.348 ± 0.059 h | 11.6 ± 0.51 h | 5.56 ± 0.21 h
5 | MNNHATVQSSAPVSAAPLLQVSGALIAIIALILAAAWLVKRLGFAPKRTGVNGLKISASASLGARERVVVVDVEDARLVLGVTAGQINLLHKLPPSAPTEEIPQTDFQSVMKNLLKRSGRS | > 8 h | – | – | – | – | > 4 h | – | 8.29 h | 1.64 h | – | – | –
6 | MNNIAPQSPVMRRLTLQDNPAIARVIRQVSAEYGLTADKGYTVADPNLDELYQVYSQPGHAYWVVEYEGEVVGGGGIAPLTGSESDICELQKMYFLPAIRGKGLAKKLALMAMEQAREMGFKRCYLETTAFLKEAIALYEHLGFEHIDYALGCTGHVDCEVRMLREL | 4.53 ± 0.45 h | 3.93 ± 0.64 h | 3.54 ± 0.28 h | 3.77 ± 0.61 h | 3.89 ± 0.23 h | 2.95 ± 0.76 h | 5.11 ± 0.59 h | 6.43 ± 0.74 h | 7.32 ± 0.57 h | 5 ± 0.34 h | 10.6 ± 2.3 h | 4.37 ± 0.26 h
7 | MNNIWWQTKGQGNVHLVLLHGWGLNAEVWRCIDEELSSHFTLHLVDLPGFGRSRGFGALSLADMAEAVLQQAPDKAIWLGWSLGGLVASQIALTHPERVQALVTVASSPCFSARDEWPGIKPDVLAGFQQQLSDDFQRTVERFLALQTMGTETARQDARALKKTVLALPMPEVDVLNGGLEILKTVDLRQPLQNVSMPFLRLYGYLDGLVPRKVVPMLDKLWPHSESYIFAKAAHAPFISHPAEFCHLLVALKQRV | 3.79 ± 0.6 h | 3.5 ± 0.15 h | 3.33 h | 3.66 ± 0.1 h | 4.85 ± 1.8 h | 3.39 ± 0.45 h | 5.41 ± 0.43 h | 12.1 ± 4.7 h | 6.93 ± 1.4 h | 5.93 ± 0.25 h | – | 3.63 ± 0.25 h
